Reference: paper PMC4847171, “Structural model of FeoB, the iron transporter from Pseudomonas aeruginosa, predicts a cysteine lined, GTP-gated pore” (Bioscience Reports, 2016)
Where “and” joins values, the source holds several entries; their conditions need not be identical. Identical values can stand only once.

B1: MexB, drug efflux transporter from Pseudomonas aeruginosa (natural protein)
chain: MSKFFIDRPIFAWVIALVIMLAGGLSILSLPVNQYPAIAPPAIAVQVSYPGASAETVQDTVVQVIEQQMNGIDNLRYISSESNSDGSMTITVTFEQGTDPDIAQVQVQNKLQLATPLLPQEVQRQGIRVTKAVKNFLMVVGVVSTDGSMTKEDLSNYIVSNIQDPLSRTKGVGDFQVFGSQYSMRIWLDPAKLNSYQLTPGDVSSAIQAQNVQISSGQLGGLPAVKGQQLNATIIGKTRLQTAEQFENILLKVNPDGSQVRLKDVADVGLGGQDYSINAQFNGSPASGIAIKLATGANALDTAKAIRQTIANLEPFMPQGMKVVYPYDTTPVVSASIHEVVKTLGEAILLVFLVMYLFLQNFRATLIPTIAVPVVLLGTFGVLAAFGFSINTLTMFGMVLAIGLLVDDAIVVVENVERVMAEEGLSPREAARKSMGQIQGALVGIAMVLSAVFLPMAFFGGSTGVIYRQFSITIVSAMALSVIVALILTPALCATMLKPIEKGDHGEHKGGFFGWFNRMFLSTTHGYERGVASILKHRAPYLLIYVVIVAGMIWMFTRIPTAFLPDEDQGVLFAQVQTPPGSSAERTQVVVDSMREYLLEKESSSVSSVFTVTGFNFAGRGQSSGMAFIMLKPWEERPGGENSVFELAKRAQMHFFSFKDAMVFAFAPPSVLELGNATGFDLFLQDQAGVGHEVLLQARNKFLMLAAQNPALQRVRPNGMSDEPQYKLEIDDEKASALGVSLADINSTVSIAWGSSYVNDFIDRGRVKRVYLQGRPDARMNPDDLSKWYVRNDKGEMVPFNAFATGKWEYGSPKLERYNGVPAMEILGEPAPGLSSGDAMAAVEEIVKQLPKGVGYSWTGLSYEERLSGSQAPALYALSLLVVFLCLAALYESWSIPFSVMLVVPLGVIGALLATSMRGLSNDVFFQVGLLTTIGLSAKNAILIVEFAKELHEQGKGIVEAAIEACRMRLRPIVMTSLAFILGVVPLAISTGAGSGSQHAIGTGVIGGMVTATVLAIFWVPLFYVAVSTLFKDEASKQQASVEKGQ

Assays:
[1] = molecular target: FeoB from Pseudomonas aeruginosa, histidine-tagged (Pseudomonas aeruginosa); assay: AFM; AFM imaging in air of isolated FeoB diluted 10000-20000 times in 10 mM K-HEPES pH 7.0, 200 mM NaCl, 10 mM MgSO4, 0.05% C12E8, adsorbed on mica and dried; oligomeric state from molecular volumes
[2] = molecular target: FeoB from Pseudomonas aeruginosa, histidine-tagged (Pseudomonas aeruginosa); assay: native gel or EMSA; blue-native PAGE (NativePAGE Novex Bis-Tris 4%-12% gel, Coomassie blue G-250, 140 V for 2 h); purified FeoB solubilised with the polymer NV10
[3] = molecular target: the molecule itself; assay: native gel or EMSA; blue-native PAGE, same gel as FeoB; comparison proteins MexB and BSA

| Molecule | stoichiometry N [1] | stoichiometry N [2] | stoichiometry N [3] |
| --- | --- | --- | --- |
| FeoB from Pseudomonas aeruginosa, histidine-tagged (natural protein) | 3 and 6 | 3 and 6 |  |
| B1 |  |  | 2 and 3 |
